Results reported in publication PMC5992710.

Assays:
[1] = target: recombinant 0076 protein (ferritin encoded by mycma_0076) from Mycobacterium abscessus subsp. massiliense GO06 (Mycobacterium abscessus subsp. massiliense GO06); experiment: SEC; Superdex 200 10/300 GL, 50 mM NaH2PO4 pH 8.0, 300 mM NaCl, 1 ml/min, calibrated with molecular weight standards; apparent mass
[2] = target: recombinant 0076 protein (ferritin encoded by mycma_0076) from Mycobacterium abscessus subsp. massiliense GO06 (Mycobacterium abscessus subsp. massiliense GO06); experiment: dynamic light scattering; r0076 1 mg/ml in 50 mM NaH2PO4 pH 8.0, 50 mM NaCl; RH converted to mass assuming a spherical particle; 20 to 90°C

Substance: recombinant 0076 protein (ferritin encoded by mycma_0076) from Mycobacterium abscessus subsp. massiliense GO06 (natural protein)
- stoichiometry N [1]: 24 subunits
- stoichiometry N [2]: 24 subunits
